Patent US20090304718A1 (Boehringer Ingelheim, published 2009)

T1: human FAP (fibroblast activation protein alpha) expressed on HT1080 clone v1.33 cells (human, UniProt Q12884 1-760)
T1 sequence (looked up): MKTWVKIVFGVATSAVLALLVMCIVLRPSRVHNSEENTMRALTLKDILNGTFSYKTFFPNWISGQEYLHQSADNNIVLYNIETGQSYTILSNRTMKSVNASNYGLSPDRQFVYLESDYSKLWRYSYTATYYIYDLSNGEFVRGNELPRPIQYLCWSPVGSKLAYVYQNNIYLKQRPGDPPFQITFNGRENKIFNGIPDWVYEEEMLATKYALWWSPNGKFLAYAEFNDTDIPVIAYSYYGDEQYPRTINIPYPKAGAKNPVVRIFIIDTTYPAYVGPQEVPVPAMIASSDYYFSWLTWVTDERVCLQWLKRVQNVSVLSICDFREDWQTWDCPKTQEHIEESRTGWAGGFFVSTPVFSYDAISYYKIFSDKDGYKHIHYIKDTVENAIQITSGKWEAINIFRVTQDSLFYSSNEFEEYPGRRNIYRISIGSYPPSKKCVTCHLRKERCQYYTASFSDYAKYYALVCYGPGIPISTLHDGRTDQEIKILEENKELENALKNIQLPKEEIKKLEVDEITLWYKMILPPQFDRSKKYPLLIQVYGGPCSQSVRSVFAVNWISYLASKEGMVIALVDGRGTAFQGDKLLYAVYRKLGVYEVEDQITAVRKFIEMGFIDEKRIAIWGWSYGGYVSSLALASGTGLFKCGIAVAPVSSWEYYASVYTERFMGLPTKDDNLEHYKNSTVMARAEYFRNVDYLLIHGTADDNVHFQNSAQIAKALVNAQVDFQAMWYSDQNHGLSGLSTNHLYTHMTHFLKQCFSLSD

T2: murine FAP expressed on HT1080 clone 13.6 cells (mouse, UniProt P97321 1-761)
T2 construct: whole, on cells; also called mouse FAP
T2 sequence (looked up): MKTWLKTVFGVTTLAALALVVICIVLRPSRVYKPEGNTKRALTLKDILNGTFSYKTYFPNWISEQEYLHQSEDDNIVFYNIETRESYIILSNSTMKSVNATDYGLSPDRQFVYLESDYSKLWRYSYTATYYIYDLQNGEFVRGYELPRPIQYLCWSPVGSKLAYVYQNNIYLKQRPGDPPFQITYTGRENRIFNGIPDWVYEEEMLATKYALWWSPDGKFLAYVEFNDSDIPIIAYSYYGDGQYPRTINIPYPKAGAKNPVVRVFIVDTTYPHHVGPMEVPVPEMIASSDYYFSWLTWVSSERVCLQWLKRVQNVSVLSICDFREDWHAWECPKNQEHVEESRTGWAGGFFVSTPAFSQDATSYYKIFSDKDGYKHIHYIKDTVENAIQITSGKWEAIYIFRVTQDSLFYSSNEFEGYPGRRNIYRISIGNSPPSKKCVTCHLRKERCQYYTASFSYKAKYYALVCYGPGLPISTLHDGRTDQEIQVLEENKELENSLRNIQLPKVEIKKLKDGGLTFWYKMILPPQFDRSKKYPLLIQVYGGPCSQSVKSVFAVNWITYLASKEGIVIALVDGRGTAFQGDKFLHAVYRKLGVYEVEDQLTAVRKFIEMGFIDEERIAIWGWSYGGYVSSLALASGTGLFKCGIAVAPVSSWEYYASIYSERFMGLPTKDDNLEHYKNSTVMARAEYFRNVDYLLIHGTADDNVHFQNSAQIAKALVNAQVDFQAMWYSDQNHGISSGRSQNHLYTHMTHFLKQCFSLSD


How the values were obtained:
[1] = target: human FAP (fibroblast activation protein alpha) expressed on HT1080 clone v1.33 cells (human) (UniProt Q12884); experiment: cell ELISA on ethanol-fixed HT1080 v1.33 cells expressing human FAP; rabbit anti-human-IgG-peroxidase, TMB, OD 450 nm
[2] = target: T1, human FAP (fibroblast activation …); experiment: cell-based or functional assay
[3] = target: T2, murine FAP expressed on HT1080 clone …; experiment: cell ELISA on ethanol-fixed HT1080 13.6 cells expressing murine FAP; goat anti-mouse-Ig-peroxidase, TMB, OD 450 nm
Description: The binding of BIBH1 and MFP5 antibodies and the respective antibody conjugates BIBH1-DM1 and MFP5-DM1 to antigen positive and negative HT1080 cells is determined in a cell-ELISA assay. […] Stable clones are generated as described for HT1080 v1.33 and clones positive for murine FAP are screened with the murine FAP specific monoclonal antibody 3D11 (Niedermeyer et al., 2000). For the cell ELISA 100 μl of cell suspensions at various cell densities are seeded per well of a 96-well microliter plate and the cells are incubated overnight in an incubator (37° C., 5% CO2). On the next day, cells are fixed with 100% ethanol. Dilutions of the antibodies BIBH1 and MFP5 and of the conjugates BIBH1-DM1 and MFP5-DM1 are added in duplicates and incubated for two hours. After washing three times with PBS/Tween, diluted rabbit anti-human-IgG-peroxidase conjugate is added for detection of the BIBH1 antibodies and for detection of the MFP5 antibodies a diluted goat anti-mouse-Ig-peroxidase conjugate is added. After incubation for two hours at RT plates are washed again three times with PBS/Tween and bound anti-FAP-antibodies detected by addition of TMB staining solution. […] A: Binding to HT1080 v1.33 expressing human FAP. The binding affinity of the antibodies is retained after conjugation to DM1. [0114] […] Only the murine specific antibody MFP5 binds. [0115] C: Negative control.

Molecule | EC50 (read off the curve) [1] [ng Ab/ml] | EC50, proliferation assay [2] [nM] | further results
humanized anti-FAP antibody BIBH1 (sibrotuzumab) | 8 | – | –
MFP5-DM1 (MFP5-SPP-DM1, disulfide-linked immunoconjugate) (other) VH: QVQLQQSGAELARPGASVNLSCKASGYTFTNNGINWLKQRTGQGLEWIGEIYPRSTNTLYNEKFKGKATLTADRSSNTAYMELRSLTSEDSAVYFCARTLTAPFAFWGQGTLVTVSA VL: QIVLTQSPAIMSASPGEKVTMTCSASSGVNFMHWYQQKSGTSPKRWIFDTSKLASGVPARFSGSGSGTSYSLTISSMEAEDAATYYCQQWSFNPPTFGGGTKLEIKR | – | – | EC50 (concentration resulting in 50% cytotoxic effect), MTS cytotoxicity assay, 3 days [2]: ~0.04 nM
MFP5-SPDB-DM4 (other) VH: QVQLQQSGAELARPGASVNLSCKASGYTFTNNGINWLKQRTGQGLEWIGEIYPRSTNTLYNEKFKGKATLTADRSSNTAYMELRSLTSEDSAVYFCARTLTAPFAFWGQGTLVTVSA VL: QIVLTQSPAIMSASPGEKVTMTCSASSGVNFMHWYQQKSGTSPKRWIFDTSKLASGVPARFSGSGSGTSYSLTISSMEAEDAATYYCQQWSFNPPTFGGGTKLEIKR | – | 0.029 | –
murine monoclonal antibody MFP5 (antibody, mouse IgG2a, V domains shown, also called BIA 13; mAbFAP5) VH: QVQLQQSGAELARPGASVNLSCKASGYTFTNNGINWLKQRTGQGLEWIGEIYPRSTNTLYNEKFKGKATLTADRSSNTAYMELRSLTSEDSAVYFCARTLTAPFAFWGQGTLVTVSA VL: QIVLTQSPAIMSASPGEKVTMTCSASSGVNFMHWYQQKSGTSPKRWIFDTSKLASGVPARFSGSGSGTSYSLTISSMEAEDAATYYCQQWSFNPPTFGGGTKLEIKR | – | – | EC50 (read off the curve) [3]: ~6 ng Ab/ml
MFP5-SMCC-DM1 (other) VH: QVQLQQSGAELARPGASVNLSCKASGYTFTNNGINWLKQRTGQGLEWIGEIYPRSTNTLYNEKFKGKATLTADRSSNTAYMELRSLTSEDSAVYFCARTLTAPFAFWGQGTLVTVSA VL: QIVLTQSPAIMSASPGEKVTMTCSASSGVNFMHWYQQKSGTSPKRWIFDTSKLASGVPARFSGSGSGTSYSLTISSMEAEDAATYYCQQWSFNPPTFGGGTKLEIKR | – | 0.022 | –
BIBH1-DM1 (protein, INN chains, looked up, DM1 maytansinoid conjugate) VH: QVQLVQSGAEVKKPGASVKVSCKTSRYTFTEYTIHWVRQAPGQRLEWIGGINPNNGIPNYNQKFKGRVTITVDTSASTAYMELSSLRSEDTAVYYCARRRIAYGYDEGHAMDYWGQGTLVTVSS VL: DIVMTQSPDSLAVSLGERATINCKSSQSLLYSRNQKNYLAWYQQKPGQPPKLLIFWASTRESGVPDRFSGSGFGTDFTLTISSLQAEDVAVYYCQQYFSYPLTFGQGTKVEIK | 10 | – | –
